Reference: the Immune Epitope Database (IEDB)
One block for each sequence: values may come before it.

What was measured:
[1] = biological target: HLA-B*18:01; experiment: IEDB peptide-MHC binding, purified MHC/competitive/radioactivity; filed as Kd, often an IC50 or EC50 that approximates it; ≥ and ≤ were set here for values at or beyond the usual limits of such assays
[2] = biological target: HLA-B*40:01; experiment: as above
[3] = biological target: HLA-B*40:02; experiment: as above
[4] = biological target: HLA-B*44:02; experiment: as above
[5] = biological target: HLA-B*44:03; experiment: as above
[6] = biological target: HLA-B*45:01; experiment: as above
[7] = biological target: HLA-A*02:01; experiment: IEDB peptide-MHC binding, purified MHC/competitive/fluorescence; filed as Kd, often an IC50 or EC50 that approximates it; ≥ and ≤ were set here for values at or beyond the usual limits of such assays; settings: source organism: Yersinia pestis Nepal516
[8] = biological target: HLA-B*15:01; experiment: as above
[9] = biological target: HLA-B*39:01; experiment: as above; settings: source organism: Yersinia pestis Nepal516
[10] = biological target: HLA-B*15:17; experiment: IEDB peptide-MHC binding, purified MHC/direct/fluorescence; filed as Kd, often an IC50 or EC50 that approximates it; ≥ and ≤ were set here for values at or beyond the usual limits of such assays; settings: source organism: Mammarenavirus lassaense
[11] = biological target: HLA-B*57:01; experiment: as above; settings: source organism: Mammarenavirus lassaense
[12] = biological target: HLA-B*58:01; experiment: as above
[13] = biological target: HLA-B*51:01; experiment: IEDB peptide-MHC binding, purified MHC/competitive/fluorescence; filed as Kd, often an IC50 or EC50 that approximates it; ≥ and ≤ were set here for values at or beyond the usual limits of such assays; settings: source organism: Salmonella enterica subsp. enterica serovar Typhi
[14] = biological target: HLA-A*01:01; experiment: IEDB peptide-MHC binding, purified MHC/direct/fluorescence; filed as Kd, often an IC50 or EC50 that approximates it; ≥ and ≤ were set here for values at or beyond the usual limits of such assays
[15] = biological target: HLA-A*02:01; experiment: as above
[16] = biological target: HLA-A*03:01; experiment: as above
[17] = biological target: HLA-A*11:01; experiment: as above
[18] = biological target: HLA-A*24:03; experiment: as above
[19] = biological target: HLA-A*26:01; experiment: as above
[20] = biological target: HLA-A*31:01; experiment: as above
[21] = biological target: HLA-A*69:01; experiment: as above
[22] = biological target: HLA-B*07:02; experiment: as above
[23] = biological target: HLA-B*08:01; experiment: as above
[24] = biological target: HLA-B*15:01; experiment: as above
[25] = biological target: HLA-B*27:05; experiment: as above
[26] = biological target: HLA-B*40:01; experiment: as above
[27] = biological target: HLA-B*44:02; experiment: as above
[28] = source organism: Mammarenavirus lassaense
[29] = source organism: SARS coronavirus Tor2
[30] = source organism: Mammarenavirus machupoense
[31] = source organism: Mammarenavirus brazilense
[32] = source organism: Mammarenavirus choriomeningitidis
[33] = source organism: Salmonella enterica subsp. enterica serovar Typhi
[34] = source organism: Salmonella enterica
[35] = source organism: Vibrio vulnificus
[36] = source organism: Corynebacterium glutamicum

Sequence: AEFKSRFFVW
Kd [1, 28]: 0.271 µM | Kd [2, 28]: 2.33 µM | Kd [3, 28]: 0.0294 µM | Kd [4, 28]: 0.0136 µM | Kd [5, 28]: 0.0156 µM | Kd [6, 28]: 0.0514 µM

Sequence: AEMDGIQYG
Kd [1, 29]: ≥ 77.5 µM | Kd [2, 29]: 2.02 µM | Kd [3, 29]: 1.31 µM | Kd [4, 29]: 0.0114 µM | Kd [5, 29]: 0.0138 µM | Kd [6, 29]: 0.0476 µM

Sequence: AQRELFFTL
Kd [7]: 1.3 µM | Kd ([8]; source organism: Yersinia pestis Nepal516): 0.113 µM | Kd [9]: 0.332 µM

Sequence: EELITDTEFL
Kd [1, 28]: 10.9 µM | Kd [2, 28]: 12.7 µM | Kd [3, 28]: ≥ 24.1 µM | Kd [4, 28]: 4.74 µM | Kd [5, 28]: 9.1 µM | Kd [6, 28]: 12.4 µM

Sequence: EEPVPLLPLS
Kd [1, 30]: ≥ 52.4 µM | Kd [2, 30]: ≥ 32 µM | Kd [3, 30]: 7.13 µM | Kd [4, 30]: 15.7 µM | Kd [5, 30]: 6.26 µM | Kd [6, 30]: 1.95 µM

Sequence: GEDIQLLKA
Kd [1, 29]: 1.08 µM | Kd [2, 29]: 7.55 µM | Kd [3, 29]: 2.73 µM | Kd [4, 29]: 13.6 µM | Kd [5, 29]: 2.66 µM | Kd [6, 29]: 2.88 µM

Sequence: GEHSLPRCW
Kd [1, 31]: ≥ 77.5 µM | Kd [2, 31]: ≥ 42.8 µM | Kd [3, 31]: 2.14 µM | Kd [4, 31]: 0.0242 µM | Kd [5, 31]: 0.0802 µM | Kd [6, 31]: 8.74 µM

Sequence: IDPTLTTWI
Kd [1, 31]: ≥ 42 µM | Kd [2, 31]: ≥ 53.3 µM | Kd [3, 31]: ≥ 10 µM | Kd [4, 31]: 3.58 µM | Kd [5, 31]: 1.37 µM | Kd [6, 31]: 7.23 µM

Sequence: IETALRTLI
Kd [1, 32]: 3.45 µM | Kd [2, 32]: 1.86 µM | Kd [3, 32]: 0.154 µM | Kd [4, 32]: 2.78 µM | Kd [5, 32]: 2.2 µM | Kd [6, 32]: ≥ 54 µM

Sequence: KEGFFTYLCG
Kd [1, 29]: ≥ 70.5 µM | Kd [2, 29]: 1.64 µM | Kd [3, 29]: 3.75 µM | Kd [4, 29]: 2.62 µM | Kd [5, 29]: 0.369 µM | Kd [6, 29]: 2.89 µM

Sequence: KENDSKEGFF
Kd [1, 29]: 7.49 µM | Kd [2, 29]: 2.69 µM | Kd [3, 29]: 0.366 µM | Kd [4, 29]: 0.0398 µM | Kd [5, 29]: 0.03 µM | Kd [6, 29]: 0.0244 µM

Sequence: KSFLWTQSL
Kd [10]: ≤ 0.001 µM | Kd [11]: 0.029 µM | Kd [12, 28]: 0.042 µM

Sequence: LESAQPGLL
Kd [1, 31]: ≥ 10 µM | Kd [2, 31]: 0.147 µM | Kd [3, 31]: 0.431 µM | Kd [4, 31]: 2.95 µM | Kd [5, 31]: 16.8 µM | Kd [6, 31]: 13.5 µM

Sequence: LEWLAEVVKL
Kd [1, 29]: 1.24 µM | Kd [2, 29]: 0.104 µM | Kd [3, 29]: ≥ 20.1 µM | Kd [4, 29]: 9.31 µM | Kd [5, 29]: 7.24 µM | Kd [6, 29]: 9.16 µM

Sequence: NPLWPFETV
Kd [13]: 0.229 µM

Sequence: QTDDGVRFT
Kd [14, 33]: 19.8 µM | Kd [15, 34]: ≥ 20 µM | Kd [16, 34]: ≥ 20 µM | Kd [17, 34]: ≥ 20 µM | Kd [18, 34]: ≥ 20 µM | Kd [19, 34]: ≥ 20 µM | Kd [20, 34]: ≥ 20 µM | Kd [21, 33]: 0.0703 µM | Kd [22, 34]: ≥ 20 µM | Kd [23, 34]: ≥ 20 µM | Kd [24, 34]: ≥ 20 µM | Kd [25, 34]: ≥ 20 µM | Kd [26, 34]: ≥ 20 µM | Kd [27, 34]: ≥ 20 µM | Kd [12, 34]: ≥ 20 µM

Sequence: RELLKSLSGL
Kd [1, 30]: ≥ 70.4 µM | Kd [2, 30]: 0.877 µM | Kd [3, 30]: 0.0612 µM | Kd [4, 30]: ≥ 22.5 µM | Kd [5, 30]: ≥ 23.3 µM | Kd [6, 30]: ≥ 70 µM

Sequence: REVGDTSSDL
Kd [1, 28]: ≥ 70.4 µM | Kd [2, 28]: 11.5 µM | Kd [3, 28]: 1.36 µM | Kd [4, 28]: ≥ 24.5 µM | Kd [5, 28]: ≥ 24.8 µM | Kd [6, 28]: ≥ 70 µM

Sequence: RIYHEFLSL
Kd ([8]; source organism: Yersinia pestis Angola): 0.0975 µM

Sequence: SEETGTLIV
Kd [1, 29]: ≥ 50.5 µM | Kd [2, 29]: 1.93 µM | Kd [3, 29]: 7.26 µM | Kd [4, 29]: ≥ 50.1 µM | Kd [5, 29]: ≥ 27.6 µM | Kd [6, 29]: 0.121 µM

Sequence: SELVIGAVII
Kd [1, 29]: ≥ 47.2 µM | Kd [2, 29]: 0.684 µM | Kd [3, 29]: 1.18 µM | Kd [4, 29]: 1.69 µM | Kd [5, 29]: 0.827 µM | Kd [6, 29]: 1.9 µM

Sequence: STDTRHIPQ
Kd [14, 35]: 4.41 µM | Kd [15, 35]: ≥ 20 µM | Kd [16, 35]: ≥ 20 µM | Kd [17, 35]: ≥ 20 µM | Kd [18, 35]: ≥ 20 µM | Kd [19, 35]: ≥ 20 µM | Kd [20, 35]: ≥ 20 µM | Kd [21, 35]: ≥ 20 µM | Kd [22, 35]: ≥ 20 µM | Kd [23, 35]: ≥ 20 µM | Kd [24, 35]: ≥ 20 µM | Kd [25, 35]: ≥ 20 µM | Kd [26, 35]: ≥ 20 µM | Kd [27, 35]: ≥ 20 µM | Kd [12, 35]: ≥ 20 µM

Sequence: TEKSNVVRG
Kd [1, 29]: ≥ 77.5 µM | Kd [2, 29]: ≥ 42.7 µM | Kd [3, 29]: ≥ 50.3 µM | Kd [4, 29]: 11.9 µM | Kd [5, 29]: ≥ 78.2 µM | Kd [6, 29]: ≥ 31.8 µM

Sequence: TEQFLCYAL
Kd [1, 30]: 0.021 µM | Kd [2, 30]: 10.6 µM | Kd [3, 30]: 0.00888 µM | Kd [4, 30]: 0.143 µM | Kd [5, 30]: 1.5 µM | Kd [6, 30]: 0.0266 µM

Sequence: TVQKDGMYF
Kd ([18]; source organism: Giardia lamblia ATCC 50803): 0.46 µM

Kd [14, 36]: ≥ 20 µM | Kd [15, 36]: 0.0637 µM | Kd [16, 36]: ≥ 20 µM | Kd [17, 36]: ≥ 20 µM | Kd [18, 36]: ≥ 20 µM | Kd [19, 36]: ≥ 20 µM | Kd [20, 36]: ≥ 20 µM | Kd [21, 36]: ≥ 20 µM | Kd [22, 36]: 10.3 µM | Kd [23, 36]: ≥ 20 µM | Kd [24, 36]: 3.81 µM | Kd [25, 36]: ≥ 20 µM | Kd [26, 36]: ≥ 20 µM | Kd [12, 36]: ≥ 20 µM
Sequence: VLPVPGASV

Sequence: YECLYRNRDV
Kd [1, 29]: ≥ 70.5 µM | Kd [2, 29]: 2.41 µM | Kd [3, 29]: 1.72 µM | Kd [4, 29]: 5.55 µM | Kd [5, 29]: 10.3 µM | Kd [6, 29]: 2.51 µM

Sequence: YEQYIKWPWY
Kd [1, 29]: 0.0793 µM | Kd [2, 29]: 1.22 µM | Kd [3, 29]: 7.6 µM | Kd [4, 29]: 0.0416 µM | Kd [5, 29]: 0.119 µM | Kd [6, 29]: 0.518 µM
